From US12454527B2, “Conjugate monomethyl auristatin E to obtain a composition for treatment of prostate cancer” (priority 2019, dated 2025)
Several values for one entry are separate records, joined by “and”; a condition that tells them apart may be missing. Equal entries are not always repeated. Entries after “also recorded” stand apart in the source; their conditions may differ. Starred links: 1 amine or outer side, 2 acyl side, 3 side chain; linkers in the order of their positions; H or OH if unused. Non-standard residues stand in square brackets, D forms with d. Residues, ends and D or L forms follow the SMILES beside them. ξ: configuration not given here. *: point of attachment. GluureaLys(ε-3-ClBenzyl) = O=C(O)CC[C@H](NC(=O)N[C@@H](CCCCN(Cc1cccc(Cl)c1)*)C(=O)O)C(=O)O; Dolaproine = CO[C@@H]([C@@H]1CCCN1)[C@@H](C)C(=O)O; Dil = CC[C@H](C)[C@H](NC)[C@@H](CC(=O)O)OC; X1 = O=C(CCCc1cn(CCCN[*:1])nn1)[*:2]; PABC = O=C(OCc1ccc(N[*:1])cc1)[*:2]; X2 = C[C@@H](N*)[C@@H](O)c1ccccc1; Cit = NC(=O)NCCC[C@H](N)C(=O)O; Suc = O=C(CCC(=O)[*:2])[*:1]; NMeV = CN[C@H](C(=O)O)C(C)C; ξV = CC(C)C(N)C(=O)O; Ahx = NCCCCCC(=O)O

Tests used:
[1] = Acute toxicity study, single intravenous administration, rats; format: in vivo; settings: for Necropsy / Signs of intoxication / Body weight dynamics in % of initial body weight, Day 5 (individual animals) / Body weight dynamics in % of initial body weight, Day 10 (individual animals) / Body weight dynamics in % of initial body weight, Day 14 (individual animals): listed as test drug; for Body weight dynamics in % of initial body weight, Day 5, M ± SD / Body weight dynamics in % of initial body weight, Day 5 (individual animals) / Body weight dynamics in % of initial body weight, Day 10, M ± SD / Body weight dynamics in % of initial body weight, Day 10 (individual animals) / Body weight dynamics in % of initial body weight, Day 14, M ± SD / Body weight dynamics in % of initial body weight, Day 14 (individual animals): single administration; for Body weight dynamics in % of initial body weight, Day 5, M ± SD: Day 5, group mean; for Body weight dynamics in % of initial body weight, Day 10, M ± SD: Day 10, group mean; for Body weight dynamics in % of initial body weight, Day 14, M ± SD: Day 14, group mean
Excerpt: Acute toxicity study of Conjugate (I) product on mice and rats.
• 1. Conjugate (I). • 2. Solubilizer Pluronic F127—in the amount, five-fold greater than the conjugate amount by weight. • 3. Diluent Haemodes infusion solution. • 4. Dimethyl sulfoxide—in the amount of 5% of the prepared volume.
The experiment took white outbred male mice aged about 2 months with body weight of 19-21,g, and also white outbred mature male rats aged about 2 months with body weight 190-210 g.
Acute toxicity study was performed within the intravenous administration. Before the start of the experiment to determine an acute toxicity, the animals were deprived of food and water (mice were deprived for 2 hours, rats—for 10-12 hours), and then weighed. Then each animal received the intravenous drug injection according to the study design, in a volume not exceeding the acceptable single injection volume: 0.5 mL for mice, 2 mL for rats, and fractionally if necessary. The control group of animals received Pluronic solution in Haemodes in the proportion used fort dose preparation of 78 mg/kg for mice and 38 mg/kg for rats. The duration of observation for laboratory animals was 14 days. During this period, visible signs of intoxication were assessed (see Table 9).

[2] = Body weight of mice in lymphoid leukosis P388 model; format: in vivo
Method: Lymphoid Leukosis P388 (male mice BDF1)—observation was held for 30 days since the first product administration (the product administration was started 24 hours after revaccination) and it was administered 3 times intraperitoneally in a day.
• 1. Group 1—tumor growth control (TGC) • 2. Group 2—placebo (diluent) • 3. Group 3—intraperitoneal Conjugate (I) administration in a dose of 0.5 mg/kg 3 times; • 4. Group 4—intraperitoneal Conjugate (I) administration in a dose of 1.0 mg/kg 3 times:
Experimental animals of control group (TGC) were administered with 0.9% saline, the placebo group was injected with the diluent (DMSO+Haemodes) of similar volume. The antineoplastic activity was determined according to mice lifespan.

[3] = 3 mg/kg, group 11, males, 3 mg/kg
[4] = 4 mg/kg, group 12, males, 4 mg/kg

With `CC[C@H](C)[C@@H]([C@@H](CC(=O)N1CCC[C@H]1[C@H](OC)[C@@H](C)C(=O)N[C@H](C)[C@@H](O)c1ccccc1)OC)N(C)C(=O)[C@@H](NC(=O)[C@H](C(C)C)N(C)C(=O)OCc1ccc(NC(=O)[C@H](CCCNC(N)=O)NC(=O)C(NC(=O)CCCc2cn(CCCNC(=O)[C@H](Cc3ccc(O)cc3)NC(=O)[C@H](Cc3ccccc3)NC(=O)CCC(=O)NCCCCCC(=O)N(CCCC[C@H](NC(=O)N[C@@H](CCC(=O)O)C(=O)O)C(=O)O)Cc3cccc(Cl)c3)nn2)C(C)C)cc1)C(C)C` (stereo partly shown) [Conjugate (I)] ({GluureaLys(ε-3-ClBenzyl)-Ahx-Suc}-FY[X1][ξV][Cit][PABC][NMeV]V[Dil][Dolaproine]-X2) the Necropsy ([1]; rats, 4.5 mg/kg i.v., dead No. 4 and survivors day 14, 4.5 mg/kg) was “increased and hyperemic kidneys; spotted, dark kidneys;; also recorded: Only rat No. 5 had Sight kidneys; also recorded: Others had standard ones”, the Necropsy ([1]; rats, 5 mg/kg i.v., dead animals and survivors day 14, 5 mg/kg) was 2 - light brown kidneys with greenish shade, blurry cut and All rats had a large spleen and the Necropsy ([1]; rats, 5.1 mg/kg i.v., survivors day 14, 5.1 mg/kg) was “One animal had increased adrenal glands, very light; also recorded: Others had standard ones”. The “Toxic effect (summary)” value ([1]; rats, acute i.v.) was “diarrhea and the renal damage”, the Signs of intoxication ([1]; rats, single i.v. 1 mg/kg, 1 mg/kg) was “No diarrhea was observed on Day 5” and the Signs of intoxication ([1]; rats, single i.v. 3 mg/kg, 3 mg/kg) was “All animals experienced diarrhea on Day”. The Signs of intoxication ([1]; rats, single i.v. 4.5 mg/kg, 4.5 mg/kg) was “Decreased mot. activity - 5-40 minutes; also recorded: Shortness of breath - 1-60 minutes; also recorded: diarrhea, cachexia, porphyria, decreased”, the Signs of intoxication ([1]; rats, single i.v. 5 mg/kg, 5 mg/kg) was “All animals developed diarrhea/cachexia” and the Signs of intoxication ([1]; rats, single i.v. 5.1 mg/kg, 5.1 mg/kg) was “Decreased mot. activity - 5-40 minutes; also recorded: Shortness of breath - 1-60 minutes; also recorded: Days 1-2 - all animals had diarrhea,; also recorded: Death cases occurred in 2 days (2), 4”. For the same molecule, the Signs of intoxication ([1]; rats, single i.v. 5.4 mg/kg, 5.4 mg/kg) was “Decreased mot. activity - 5-40 minutes; also recorded: Shortness of breath - 1-60 minutes; also recorded: Days 1-2 - all animals had diarrhea,; also recorded: No standard achieved; also recorded: Two animals had the hindlimb paresis”, the Signs of intoxication ([1]; rats, single i.v. 6 mg/kg, 6 mg/kg) was “on Day 2 - all animals showed diarrhea” and the Signs of intoxication ([1]; rats, single i.v. 8 mg/kg, 8 mg/kg) was “diarrhea, general starvation, adynamia”. The “Body weight dynamics in % of initial body weight, Day 5, M ± SD” value ([1]; 3 mg/kg, group 11, males) was −0.2 ± 7.1%, the “Body weight dynamics in % of initial body weight, Day 5 (individual animals)” value [1, 3] was −1.5% and −11.2% and −5.1% and 10.8% and −9.4% and 5.5% and 1.4% and −2.4% and 2.0% and 7.6% and the “Body weight dynamics in % of initial body weight, Day 10, M ± SD” value ([1]; 3 mg/kg, group 11, males) was 17.2 ± 6.1%. For the same molecule, the “Body weight dynamics in % of initial body weight, Day 10 (individual animals)” value [1, 3] was 17.3% and 5.9% and 16.4% and 25.1% and 11.4% and 20.1% and 19.7% and 17.1% and 13.2% and 26.1%, the “Body weight dynamics in % of initial body weight, Day 14, M ± SD” value ([1]; 3 mg/kg, group 11, males) was 22.8 ± 6.0% and the “Body weight dynamics in % of initial body weight, Day 14 (individual animals)” value [1, 3] was 20.8% and 10.1% and 20.0% and 29.1% and 16.8% and 27.1% and 26.4% and 23.8% and 24.9% and 29.4%. The “Body weight dynamics in % of initial body weight, Day 5, M ± SD” value ([1]; 4 mg/kg, group 12, males) was −7.7 ± 7.6%, the “Body weight dynamics in % of initial body weight, Day 5 (individual animals)” value [1, 4] was 6.1% and −15.2% and −5.9% and 0.0% and −3.0% and −4.1% and −13.7% and −17.1% and −9.2% and −14.4% and the “Body weight dynamics in % of initial body weight, Day 10, M ± SD” value ([1]; 4 mg/kg, group 12, males) was 11.0 ± 11.5%. For the same molecule, the “Body weight dynamics in % of initial body weight, Day 10 (individual animals)” value [1, 4] was 25.5% and 2.5% and 16.3% (2×) and 22.2% and 19.1% and 5.9% and −10.5% and 14.5% and −1.9%, the “Body weight dynamics in % of initial body weight, Day 14, M ± SD” value ([1]; 4 mg/kg, group 12, males) was 20.1 ± 12.1% and the “Body weight dynamics in % of initial body weight, Day 14 (individual animals)” value [1, 4] was 35.2% and 11.7% and 24.6% and 31.7% and 28.1% (2×) and 18.0% and 1.0% (2×) and 21.7%. For the same molecule, the LD50 at 14 days ([1]; white outbred, rat, in vivo, iv, male rats, single i.v., read-out: LD50 (median lethal dose)) was 4.9 mg/kg, the “Body weight of mice” value ([2]; 0.5 mg/kg, day 0, in g (unit assumed)) was 19.9 ± 0.36 and the “Body weight of mice” value ([2]; 0.5 mg/kg, day 2, in g (unit assumed)) was 19.2 ± 0.28. For the same molecule, the “Body weight of mice” value ([2]; 0.5 mg/kg, day 4, in g (unit assumed)) was 19.2 ± 0.32, the “Body weight of mice” value ([2]; 1.0 mg/kg, day 0, in g (unit assumed)) was 19.7 ± 0.36 and the “Body weight of mice” value ([2]; 1.0 mg/kg, day 2, in g (unit assumed)) was 19.7 ± 0.48. The “Body weight of mice” value ([2]; 1.0 mg/kg, day 4, in g (unit assumed)) was 19.7 ± 0.42.
